The supplement of paper PMC7877785
± gives the uncertainty stated by the source.

Assay: self-splicing fitness, log relative to wild type (ln ratio); higher = more splicing; Tetrahymena group I intron in knt gene, E. coli kanamycin selection, DiMSum; sequences stand for … in CUCUCU…GGAGGGAAAAGUUAUCAGGCAUGCACCUGGUAGCUAGUCUUUAAACCAAUAGAUUGCAUCGGUUUAAAAGGCAAGACCGUCAAAUUGCGGGAAAGGGGUCAACAGCCGUUCAGUACCAAGUCUCAGGGGAAACUUUGAGAUGGCCUUGCAAAGGGUAUGGUAAUAAGCUGACGGACAUGGUCCUAACCACGCAGCCAAGUCCUAAGUCAACAGAUCUUCUGUUGAUAUGGAUGCAGUUCACAGACUAAAUGUCGGUCGGGGAAGAUGUAUUCUUCUCAUAAGAUAUAGUCGGACCUCUCCUUAAUGGGAGCUAGCGGAUGAAGUGAUGCAACACUGGAGCCGCUGGGAACUAAUUUGUAUGCGAAAGUAUAUUGAUUAGUUUUGGAGUACUCGUGGUCG
In short: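 Colonies from six replicate transformations of E. coli BL21(DE3) were pooled and amplicon-sequenced on an Illumina HiSeq 2500. The library placed an intron with all eight P1ex-region nucleotides randomised inside the knt kanamycin-resistance gene on pET-22b(+), and cells grew overnight at 37°C or 30°C on LB agar with or without 25 μg/mL kanamycin (plus 100 μg/mL carbenicillin, 50 μM IPTG, 0.2% rhamnose). Fitness is the DiMSum error-weighted combination of wild-type-normalised replicate fold changes, kanamycin versus none.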

Row | Sequence | self-splicing fitness (ln) (30 °C) | self-splicing fitness (ln) (37 °C)
1 | GCCUAGCAAUAUUACGAAUU | -2.09 ± 0.12 | -0.976 ± 0.11
2 | GCCUAGCAAUAUUACGACGC | -0.302 ± 0.091 | 0.255 ± 0.11
3 | GCCUAGCAAUAUUACGACUU | -1.37 ± 0.077 | -0.298 ± 0.079
4 | GCCUAGCAAUAUUACGAUAA | -2.08 ± 0.12 | -1.75 ± 0.14
5 | GCCUAGCAAUAUUACGAUUC | -0.921 ± 0.076 | -0.684 ± 0.096
6 | GCCUAGCAAUAUUACGCAAU | -0.932 ± 0.14 | -0.245 ± 0.17
7 | GCCUAGCAAUAUUACGCUCU | -0.984 ± 0.06 | 0.106 ± 0.083
8 | GCCUAGCAAUAUUACGCUGA | -1.69 ± 0.074 | -0.266 ± 0.079
9 | GCCUAGCAAUAUUACGGCAA | -2.64 ± 0.15 | -1.75 ± 0.14
10 | GCCUAGCAAUAUUACGGCCU | -2.48 ± 0.18 | -1.33 ± 0.24
11 | GCCUAGCAAUAUUACGGCUG | -1.88 ± 0.15 | -3.29 ± 0.42
12 | GCCUAGCAAUAUUACGGGUU | -2.93 ± 0.12 | -2.02 ± 0.13
13 | GCCUAGCAAUAUUACGGUGU | -0.374 ± 0.054 | 0.0553 ± 0.064
14 | GCCUAGCAAUAUUACGGUUU | -0.729 ± 0.05 | -0.56 ± 0.062
15 | GCCUAGCAAUAUUACGUCGC | -1.46 ± 0.17 | -1.01 ± 0.16
16 | GCCUAGCAAUAUUACGUUCU | -1.96 ± 0.14 | -0.354 ± 0.12
17 | GCGAAGCAAUAUUACGAACU | -0.877 ± 0.16 | -0.787 ± 0.17
18 | GCGAAGCAAUAUUACGAAGU | -2.99 ± 0.35 | -2.89 ± 0.26
19 | GCGAAGCAAUAUUACGACGC | -1.98 ± 0.47 | –
20 | GCGAAGCAAUAUUACGACGG | -1.27 ± 0.21 | -0.313 ± 0.33
21 | GCGAAGCAAUAUUACGACUU | -1.4 ± 0.1 | -0.741 ± 0.12
22 | GCGAAGCAAUAUUACGAGCA | -1.52 ± 0.2 | -1.63 ± 0.25
23 | GCGAAGCAAUAUUACGAGGG | -3.77 ± 0.23 | -3.27 ± 0.35
24 | GCGAAGCAAUAUUACGAUCA | -1.82 ± 0.34 | -1.01 ± 0.3
25 | GCGAAGCAAUAUUACGAUCG | -2.49 ± 0.31 | -0.964 ± 0.28

Row | Sequence | self-splicing fitness (ln) (30 °C) | self-splicing fitness (ln) (37 °C)
26 | GCGAAGCAAUAUUACGCACA | -1.08 ± 0.13 | -0.906 ± 0.14
27 | GCGAAGCAAUAUUACGCACG | -2.58 ± 0.21 | -3.6 ± 0.35
28 | GCGAAGCAAUAUUACGCAGG | -3.06 ± 0.27 | -2.39 ± 0.23
29 | GCGAAGCAAUAUUACGCCUG | -2.26 ± 0.19 | -2.16 ± 0.24
30 | GCGAAGCAAUAUUACGCGGG | -2.26 ± 0.16 | -2.72 ± 0.36
31 | GCGAAGCAAUAUUACGCGGU | -2.84 ± 0.29 | -1.65 ± 0.32
32 | GCGAAGCAAUAUUACGCUAA | -2.54 ± 0.28 | -2.21 ± 0.2
33 | GCGAAGCAAUAUUACGCUGG | -1.61 ± 0.13 | -2.73 ± 0.22
34 | GCGAAGCAAUAUUACGGAAC | -2.72 ± 0.21 | -2.28 ± 0.47
35 | GCGAAGCAAUAUUACGGCAG | -1.93 ± 0.21 | -2.92 ± 0.38
36 | GCGAAGCAAUAUUACGGCUG | -1.55 ± 0.1 | -0.574 ± 0.14
37 | GCGAAGCAAUAUUACGGGCA | -1.96 ± 0.15 | -0.529 ± 0.11
38 | GCGAAGCAAUAUUACGGGUU | -2.88 ± 0.1 | -1.65 ± 0.099
39 | GCGAAGCAAUAUUACGGUGA | -2.09 ± 0.11 | -1.07 ± 0.12
40 | GCGAAGCAAUAUUACGUAUG | -4.39 ± 0.26 | -2.81 ± 0.16
41 | GCGAAGCAAUAUUACGUCAU | -2.72 ± 0.15 | -1.65 ± 0.14
42 | GCGAAGCAAUAUUACGUCCU | -0.0766 ± 0.14 | 0.569 ± 0.17
43 | GCGAAGCAAUAUUACGUUAU | -2.2 ± 0.1 | -1.86 ± 0.11
44 | GCGCAGCAAUAUUACGAAAA | -1.92 ± 0.21 | -1.7 ± 0.21
45 | GCGCAGCAAUAUUACGAAUG | -1.52 ± 0.13 | -0.961 ± 0.14
46 | GCGCAGCAAUAUUACGAGGU | -2.49 ± 0.2 | -1.24 ± 0.25
47 | GCGCAGCAAUAUUACGAUGC | -2.63 ± 0.17 | -0.824 ± 0.17
48 | GCGCAGCAAUAUUACGAUUG | -2.57 ± 0.073 | -1.28 ± 0.1
49 | GCGCAGCAAUAUUACGCAAC | -1.79 ± 0.14 | -0.576 ± 0.18
50 | GCGCAGCAAUAUUACGCCGC | -2.28 ± 0.35 | -1.44 ± 0.49

Row | Sequence | self-splicing fitness (ln) (30 °C) | self-splicing fitness (ln) (37 °C)
51 | GCGCAGCAAUAUUACGCCGG | -2.75 ± 0.25 | -1.57 ± 0.31
52 | GCGCAGCAAUAUUACGCGAU | – | -2.14 ± 0.3
53 | GCGCAGCAAUAUUACGCGGU | -3.82 ± 0.28 | -2.25 ± 0.22
54 | GCGCAGCAAUAUUACGGACC | -1.03 ± 0.24 | 0.344 ± 0.38
55 | GCGCAGCAAUAUUACGGCGG | -2.48 ± 0.13 | -1.28 ± 0.15
56 | GCGCAGCAAUAUUACGGGAU | -1.66 ± 0.1 | -1.09 ± 0.12
57 | GCGCAGCAAUAUUACGUCAG | -2.03 ± 0.14 | -2.23 ± 0.18
58 | GCGCAGCAAUAUUACGUCAU | -1.65 ± 0.084 | -0.91 ± 0.086
59 | GCGCAGCAAUAUUACGUGGA | -1.48 ± 0.098 | -0.745 ± 0.098
60 | GCGCAGCAAUAUUACGUUUA | -1.01 ± 0.1 | -0.423 ± 0.1
61 | GCGGAGCAAUAUUACGAAAC | -3.16 ± 0.31 | -0.996 ± 0.24
62 | GCGGAGCAAUAUUACGAAAU | -2.94 ± 0.5 | -1.23 ± 0.42
63 | GCGGAGCAAUAUUACGACAA | -1.13 ± 0.23 | -1.7 ± 0.29
64 | GCGGAGCAAUAUUACGAGGU | -4.1 ± 0.46 | –
65 | GCGGAGCAAUAUUACGAUAC | -1.78 ± 0.18 | -2.35 ± 0.33
66 | GCGGAGCAAUAUUACGAUCU | -1.97 ± 0.25 | -0.0473 ± 0.33
67 | GCGGAGCAAUAUUACGAUGA | -3.1 ± 0.23 | -2.23 ± 0.26
68 | GCGGAGCAAUAUUACGAUGU | -2.73 ± 0.26 | -1.02 ± 0.22
69 | GCGGAGCAAUAUUACGAUUU | -2.22 ± 0.14 | -0.641 ± 0.14
70 | GCGGAGCAAUAUUACGCAUG | – | -2.8 ± 0.44
71 | GCGGAGCAAUAUUACGCCAG | -2.22 ± 0.42 | -2.26 ± 0.42
72 | GCGGAGCAAUAUUACGCCCG | -1.19 ± 0.5 | –
73 | GCGGAGCAAUAUUACGCGAU | -2.58 ± 0.33 | -2.18 ± 0.36
74 | GCGGAGCAAUAUUACGCGGG | -3.35 ± 0.38 | -1.2 ± 0.24
75 | GCGGAGCAAUAUUACGGAGU | -2.51 ± 0.33 | -2.1 ± 0.29

Row | Sequence | self-splicing fitness (ln) (30 °C) | self-splicing fitness (ln) (37 °C)
76 | GCGGAGCAAUAUUACGGCGG | -3.3 ± 0.3 | -2.6 ± 0.32
77 | GCGGAGCAAUAUUACGGGGC | -2.48 ± 0.48 | -1.65 ± 0.35
78 | GCGGAGCAAUAUUACGGGUG | – | -1.36 ± 0.34
79 | GCGGAGCAAUAUUACGGUAC | – | -2.04 ± 0.36
80 | GCGGAGCAAUAUUACGGUCA | -2.75 ± 0.17 | -1.04 ± 0.13
81 | GCGGAGCAAUAUUACGGUUG | -3.64 ± 0.2 | -1.78 ± 0.18
82 | GCGGAGCAAUAUUACGUAAA | -3.53 ± 0.31 | -1.97 ± 0.35
83 | GCGGAGCAAUAUUACGUAGA | -3.84 ± 0.43 | -2.24 ± 0.35
84 | GCGGAGCAAUAUUACGUGCG | -3.79 ± 0.35 | -2.55 ± 0.27
85 | GCGUAGCAAUAUUACGAACA | -0.46 ± 0.22 | -0.256 ± 0.24
86 | GCGUAGCAAUAUUACGAAUA | -0.7 ± 0.12 | -1.13 ± 0.11
87 | GCGUAGCAAUAUUACGACAU | -0.276 ± 0.014 | -0.025 ± 0.033
88 | GCGUAGCAAUAUUACGAGGA | -1.09 ± 0.42 | –
89 | GCGUAGCAAUAUUACGAUAU | -0.111 ± 0.081 | -0.357 ± 0.1
90 | GCGUAGCAAUAUUACGAUGG | -1.91 ± 0.17 | -2.82 ± 0.31
91 | GCGUAGCAAUAUUACGCAUA | -3.49 ± 0.2 | -2.17 ± 0.21
92 | GCGUAGCAAUAUUACGCGCC | -2.51 ± 0.35 | -1.51 ± 0.45
93 | GCGUAGCAAUAUUACGCGUA | -2.83 ± 0.46 | -2.3 ± 0.37
94 | GCGUAGCAAUAUUACGCUUG | – | -2.26 ± 0.33
95 | GCGUAGCAAUAUUACGGAAU | -2.67 ± 0.33 | -0.8 ± 0.2
96 | GCGUAGCAAUAUUACGGCUC | 0.371 ± 0.11 | 0.776 ± 0.12
97 | GCGUAGCAAUAUUACGGCUG | -3.74 ± 0.42 | -1.39 ± 0.49
98 | GCGUAGCAAUAUUACGGGAC | -2.1 ± 0.15 | -2.17 ± 0.2
